# Assay results from patent US20260274955A1 (JANUX THERAPEUTICS, published 2026).
# B1: Phage-1186 (peptide)
# peptide: TCSAGATYSWPYCL
# B2: Phage-1173 (peptide)
# peptide: LCAAGAYYPWPLCF
# B3: Phage-1174 (peptide)
# peptide: TCTAGFSYKWPTCL
# B4: Phage-1169 (peptide)
# peptide: TCAAGVPYKWPPCL
# B5: Phage-1168 (peptide)
# peptide: QCSAGATYAWPFCL
# B6: Phage-1123 (peptide)
# peptide: TCEDGFHFSWPECF
# B7: Phage-1113 (peptide)
# peptide: SCSAGATYEWPYCF
# B8: Phage-1176 (peptide)
# peptide: SCSAGATYQWPYCF
# B9: Phage-1163 (peptide)
# peptide: SCAAGAMWEWPKCF
# B10: Phage-1165 (peptide)
# peptide: TCAAGATYEWPSCL
# B11: Phage-1160 (peptide)
# peptide: SCAAGAHYPWPECL
# B12: Phage-1171 (peptide)
# peptide: RCAAVFSYTWPPCL
# B13: Phage-1159 (peptide)
# peptide: TCSAGAHYSWPKCF
# B14: Phage-1167 (peptide)
# peptide: LCAAGAAWEWPMCF
# B15: Phage-1117 (peptide)
# peptide: TCSAGFSYKWPWCW
# B16: Phage-1180 (peptide)
# peptide: TCAAGATYMWPVCL
# B17: Phage-1126 (peptide)
# peptide: WCDQFFHYKWPLCL
# B18: Phage-1116 (peptide)
# peptide: SCSAGALWKWPVCF
# B19: Phage-1120 (peptide)
# peptide: TCSAGATYMWPACF
# B20: Phage-1172 (peptide)
# peptide: TCSAGATYKWPACF
# B21: Phage-1121 (peptide)
# peptide: TCSAGATYAWPACF
# B22: Phage-1177 (peptide)
# peptide: SCAAGATYSWPACL
# B23: Phage-1115 (peptide)
# peptide: LCAAGATYPWPICL
# B24: Phage-1122 (peptide)
# peptide: WCGVGMDWRWPECL
# B25: Phage-1164 (peptide)
# peptide: SCADGAIWEWPWCF
# B26: Phage-1170 (peptide)
# peptide: SCAAGATYTWPFCL
# B27: Phage-1128 (peptide)
# peptide: TCAAGAHYSWPFCM
# B28: Phage-1178 (peptide)
# peptide: NCAAGAMYSWPTCL
# B29: Phage-1114 (peptide)
# peptide: TCAAGANWHWPWCF
# B30: Phage-1158 (peptide)
# peptide: SCSAGATYTWPACL
# B31: Phage-1127 (peptide)
# peptide: SCAAGATYVWPMCF
# B32: Phage-1166 (peptide)
# peptide: SCSAGAMYTWPTCL
# B33: Phage-1118 (peptide)
# peptide: SCSAGAMYQWPLCF
# B34: Phage-1162 (peptide)
# peptide: TCAAGAAYTWPVCF
# B35: Phage-1161 (peptide)
# peptide: SCAEVFNYVWPFCF
# Target: anti-CD28 Fab (SEQ ID NOs: 202, 203)
# Test: phage ELISA, Fab on plate;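 note: ELISA of crude clonal phage supernatants on the plate, wells preloaded with CD28 antigen or only blocking buffer, captured phage read out via HRP-linked anti-M13 antibody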
# Sequence of anti-CD28 Fab (SEQ ID NOs: 202, 203) (VH, as listed by the source, chain 1 of 2): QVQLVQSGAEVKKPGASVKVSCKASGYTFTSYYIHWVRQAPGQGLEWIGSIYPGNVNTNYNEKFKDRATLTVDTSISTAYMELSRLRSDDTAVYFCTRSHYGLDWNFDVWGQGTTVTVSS
# Sequence of anti-CD28 Fab (SEQ ID NOs: 202, 203) (VL, as listed by the source, chain 2 of 2): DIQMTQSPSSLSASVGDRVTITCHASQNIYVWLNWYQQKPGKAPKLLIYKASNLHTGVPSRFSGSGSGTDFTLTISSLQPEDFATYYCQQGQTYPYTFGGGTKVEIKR
row,Binder,Anti-CD28 Fab signal
1,B1,1.22
2,B2,1.28
3,B3,1.28
4,B4,1.29
5,B5,1.29
6,B6,1.44
7,B7,1.47
8,B8,1.26
9,B9,1.32
10,B10,1.32
11,B11,1.32
12,B12,1.29
13,B13,1.33
14,B14,1.3
15,B15,1.45
16,B16,1.24
17,B17,1.42
18,B18,1.45

row,Binder,Anti-CD28 Fab signal
1,B19,1.44
2,B20,1.29
3,B21,1.44
4,B22,1.25
5,B23,1.46
6,B24,1.44
7,B25,1.32
8,B26,1.29
9,B27,1.42
10,B28,1.25
11,B29,1.46
12,B30,1.34
13,B31,1.42
14,B32,1.31
15,B33,1.44
16,B34,1.32
17,B35,1.32

# Target: anti-CD28 Fab (SEQ ID NOs: 202, 203)
# Test: phage ELISA, Fab on plate, CD28 antigen as competitor;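 note: wells pre-incubated with CD28 antigen in blocking buffer (reference: blocking buffer only) before adding crude clonal phage supernatant, bound phage read with HRP-coupled anti-M13 antibody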
# Method: After panning, phage infected bacteria were plated out and colonies picked into 96 well blocks. Clonal phage was then amplified and separated from bacterial cells via centrifugation.
# Clonal phage were harvested as crude supernatants and screened via standard ELISAs. […] Prior to the addition of clonal phage, wells were incubated with blocking buffer and CD28 antigen or blocking buffer alone. Without washing or aspirating, clonal phage supernatants were then added to the wells and incubated for a short time. Wells were then washed followed by detection of bound phage using a horse radish conjugated anti-M13 antibody. Clonal phage of interest were then sent for sequence analysis.
row,Binder,Anti-CD28 Fab signal in the presence of CD28
1,B1,0.07
2,B2,0.06
3,B3,0.09
4,B4,0.06
5,B5,0.08
6,B6,0.07
7,B7,0.06
8,B8,0.06
9,B9,0.09
10,B10,0.09
11,B11,0.05
12,B12,0.07
13,B13,0.07
14,B14,0.06
15,B15,0.06
16,B16,0.07
17,B17,0.07
18,B18,0.07

row,Binder,Anti-CD28 Fab signal in the presence of CD28
1,B19,0.1
2,B20,0.05
3,B21,0.08
4,B22,0.07
5,B23,0.08
6,B24,0.16
7,B25,0.07
8,B26,0.07
9,B27,0.07
10,B28,0.07
11,B29,0.15
12,B30,0.07
13,B31,0.07
14,B32,0.08
15,B33,0.09
16,B34,0.08
17,B35,0.07
